Target: mouse MBL (mannose-binding lectin of mouse serum, bound to mannan)

B1: recombinant mouse MASP-2 (rMASP-2) (protein)
chain: TLLGSKWPEPVFGRLVSPGFPEKYADHQDRSWTLTAPPGYRLRLYFTHFDLELSYRCEYDFVKLSSGTKVLATLCGQESTDTEQAPGNDTFYSLGPSLKVTFHSDYSNEKPFTGFEAFYAAEDVDECRVSLGDSVPCDHYCHNYLGGYYCSCRAGYILHQNKHTCSALCSGQVFTGRSGYLSSPEYPQPYPKLSSCTYSIRLEDGFSVILDFVESFDVETHPEAQCPYDSLKIQTDKGEHGPFCGKTLPPRIETDSHKVTITFATDESGNHTGWKIHYTSTARPCPDPTAPPNGSISPVQATYVLKDRFSVFCKTGFELLQGSVPLKSFTAVCQKDGSWDRPMPECSIIDCGPPDDLPNGHVDYITGPQVTTYKAVIQYSCEETFYTMSSNGKYVCEADGFWTSSKGEKLPPVCEPVCGLSTHTIGGRIVGGQPAKPGDFPWQVLLLGQTTAAAGALIHDNWVLTAAHAVYEKRMAASSLNIRMGILKRLSPHYTQAWPEEIFIHEGYTHGAGFDNDIALIKLKNKVTINGSIMPVCLPRKEAASLMRTDFTGTVAGWGLTQKGLLARNLMFVDIPIADHQKCTTVYEKLYPGVRVSANMLCAGLETGGKDSCRGDSGGALVFLDNETQRWFVGGIVSWGSINCGAAGQYGVYTKVINYIPWNENIISNF
C4 deposition on mannan-coated wells (sMAP-/- mouse serum): the amount of C4 was restored by up to 46% of that of wild-type serum in a dose-dependent manner and reached a plateau (FIG. 25B)

— patent US20110091450
